This is an account of results in article PMC6239178, “The binding of Class II sRNA MgrR to two different sites on matchmaker protein Hfq enables efficient competition for Hfq and annealing to regulated mRNAs”.

Numbering of substitutions follows the chain as printed.

The target of series [1] is T1, Hfq wt (Escherichia coli, UniProt P0A6X3 1-102). Description: filter binding; 32P-A27 complex displaced by MgrR; HBB buffer (composition not in material); competition and dissociation at RT; Kd gelshift 0.1 nM 32P-MgrR, 2 h RT, 5% native gel in TBM (89 mM Tris, 89 mM borat). The settings on record: protein: recombinant; pET15b); chain copies: 6; label: 32P or unlabeled; single-stranded.

Series [2] deals with T1, Hfq wt. The series is described as follows: EMSA; ternary complex with MgrR, unaffected; HBB buffer (composition not in material); competition and dissociation at RT; Kd gelshift 0.1 nM 32P-MgrR, 2 h RT, 5% native gel in TBM (89 mM Tris, 89 mM borat). The conditions noted are these: protein: recombinant; pET15b); chain copies: 6.
The target in series [3] is T1, Hfq wt. Description: EMSA; ternary complex with MgrR, annealing not markedly affected; HBB buffer (composition not in material); competition and dissociation at RT; Kd gelshift 0.1 nM 32P-MgrR, 2 h RT, 5% native gel in TBM (89 mM Tris, 89 mM borat). The settings on record: protein: recombinant; pET15b); chain copies: 6.
Series [4] has as its target T1, Hfq wt. The series is described as follows: filter binding; 32P-U18 complex displaced by MgrR; HBB buffer (composition not in material); competition and dissociation at RT; Kd gelshift 0.1 nM 32P-MgrR, 2 h RT, 5% native gel in TBM (89 mM Tris, 89 mM borat). The settings on record: protein: recombinant; pET15b); chain copies: 6; label: 32P or unlabeled; single-stranded.

T1 sequence (P0A6X3 whole entry): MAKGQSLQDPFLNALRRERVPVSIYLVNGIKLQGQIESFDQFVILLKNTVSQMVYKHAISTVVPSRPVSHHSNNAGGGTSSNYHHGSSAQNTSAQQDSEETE

B1: A27 (ssRNA)
RNA: AAAAAAAAAAAAAAAAAAAAAAAAAAA
Regarding B1, the binding result in the series with Hfq wt [1] was “binds”.

B2: ygdQ145_AU3 (structured_RNA)
RNA: GCUUCAUUUUUUUGGCAGGGCUUUUUAGAUGUUAUUUGCAUGGAUAACCGAUCCUAACGCCUGGCUUGCGCUCGGUACGCUGACGCUGCUGGAGAUCGUUCUUGGGAUCGACAAUGUGCUGGUCCUCUCUCUGGUGGUGGCAAAG
Consider B2, for which the binding result in the series with Hfq wt [2] was “binds”.

B3: eptB133_AU1_v1 (structured_RNA)
RNA: GCGCGUGUAGACCGCACUUAUCUGACUACCUCCGCACUUUUUCCCUGCCGGGCCUGAAAAGCCACUAAGCAGGGUGUUAUCACCUGUUUGUCCAGGGUUUGUUUGCAUGAGAUACAUCAAAUCGAUUACACAG
For the molecule B3, in the series with Hfq wt [3], the binding result is reported as “binds”.

B4: eptB133_AU1_v2 (structured_RNA)
RNA: B3 RNA with A11U, C12U, C13U, G14U, C15U, A16U, A20U
Consider B4, for which the binding result with Hfq wt [3] was “binds”.

B5: U18 (ssRNA)
RNA: UUUUUUUUUUUUUUUUUU
Consider B5, for which the binding result in the series with Hfq wt [4] is listed as “binds”.
